Data from US20230395193A1 (priority 2020, published 2023).

Test system: SARS-CoV-1, MERS-CoV and SARS-CoV-2 proteins in HEK293T cells
Parameters: species or system human

Row | Molecule | MIST_MERS | MIST_SARS1 | MIST_SARS2 | Saint_MERS | Saint_SARS1 | Saint_SARS2
1 | M-Q9UI26 (protein, UniProt Q9UI26 1-975, looked up, interactor of M protein) Importin-11: MDLNSASTVVLQVLTQATSQDTAVLKPAEEQLKQWETQPGFYSVLLNIFTNHTLDINVRWLAVLYFKHGIDRYWRRVAPHALSEEEKTTLRAGLITNFNEPINQIATQIAVLIAKVARLDCPRQWPELIPTLIESVKVQDDLRQHRALLTFYHVTKTLASKRLAADRKLFYDLASGIYNFACSLWNHHTDTFLQEVSSGNEAAILSSLERTLLSLKVLRKLTVNGFVEPHKNMEVMGFLHGIFERLKQFLECSRSIGTDNVCRDRLEKTIILFTKVLLDFLDQHPFSFTPLIQRSLEFSVSYVFTEVGEGVTFERFIVQCMNLIKMIVKNYAYKPSKNFEDSSPETLEAHKIKMAFFTYPTLTEICRRLVSHYFLLTEEELTMWEEDPEGFTVEETGGDSWKYSLRPCTEVLFIDIFHEYNQTLTPVLLEMMQTLQGPTNVEDMNALLIKDAVYNAVGLAAYELFDSVDFDQWFKNQLLPELQVIHNRYKPLRRRVIWLIGQWISVKFKSDLRPMLYEAICNLLQDQDLVVRIETATTLKLTVDDFEFRTDQFLPYLETMFTLLFQLLQQVTECDTKMHVLHVLSCVIERVNMQIRPYVGCLVQYLPLLWKQSEEHNMLRCAILTTLIHLVQGLGADSKNLYPFLLPVIQLSTDVSQPPHVYLLEDGLELWLVTLENSPCITPELLRIFQNMSPLLELSSENLRTCFKIINGYIFLSSTEFLQTYAVGLCQSFCELLKEITTEGQVQVLKVVENALKVNPILGPQMFQPILPYVFKGIIEGERYPVVMSTYLGVMGRVLLQNTSFFSSLLNEMAHKFNQEMDQLLGNMIEMWVDRMDNITQPERRKLSALALLSLLPSDNSVIQDKFCGIINISVEGLHDVMTEDPETGTYKDCMLMSHLEEPKVTEDEEPPTEQDKRKKMLALKDPVHTVSLQQFIYEKLKAQQEMLGEQGFQSLMETVDTEIVTQLQEFLQGF | 0.9937 | 0.6822 | 0.6494 | 0.99 | 1 | 1
2 | M-Q9UKV5 (protein, UniProt Q9UKV5 1-643, looked up) E3 ubiquitin-protein ligase …: MPLLFLERFPWPSLRTYTGLSGLALLGTIISAYRALSQPEAGPGEPDQLTASLQPEPPAPARPSAGGPRARDVAQYLLSDSLFVWVLVNTACCVLMLVAKLIQCIVFGPLRVSERQHLKDKFWNFIFYKFIFIFGVLNVQTVEEVVMWCLWFAGLVFLHLMVQLCKDRFEYLSFSPTTPMSSHGRVLSLLVAMLLSCCGLAAVCSITGYTHGMHTLAFMAAESLLVTVRTAHVILRYVIHLWDLNHEGTWEGKGTYVYYTDFVMELTLLSLDLMHHIHMLLFGNIWLSMASLVIFMQLRYLFHEVQRRIRRHKNYLRVVGNMEARFAVATPEELAVNNDDCAICWDSMQAARKLPCGHLFHNSCLRSWLEQDTSCPTCRMSLNIADNNRVREEHQGENLDENLVPVAAAEGRPRLNQHNHFFHFDGSRIASWLPSFSVEVMHTTNILGITQASNSQLNAMAHQIQEMFPQVPYHLVLQDLQLTRSVEITTDNILEGRIQVPFPTQRSDSIRPALNSPVERPSSDQEEGETSAQTERVPLDLSPRLEETLDFGEVEVEPSEVEDFEARGSRFSKSADERQRMLVQRKDELLQQARKRFLNKSSEDDAASESFLPSEGASSDPVTLRRRMLAAAAERRLQKQQTS | 0.2719 | 0.9871 | 0.04352 | 0 | 1 | 1
3 | M-Q9ULF5 (protein, UniProt Q9ULF5 26-831, looked up) Zinc transporter ZIP10: HEEHDHGPEALHRQHRGMTELEPSKFSKQAAENEKKYYIEKLFERYGENGRLSFFGLEKLLTNLGLGERKVVEINHEDLGHDHVSHLDILAVQEGKHFHSHNHQHSHNHLNSENQTVTSVSTKRNHKCDPEKETVEVSVKSDDKHMHDHNHRLRHHHRLHHHLDHNNTHHFHNDSITPSERGEPSNEPSTETNKTQEQSDVKLPKGKRKKKGRKSNENSEVITPGFPPNHDQGEQYEHNRVHKPDRVHNPGHSHVHLPERNGHDPGRGHQDLDPDNEGELRHTRKREAPHVKNNAIISLRKDLNEDDHHHECLNVTQLLKYYGHGANSPISTDLFTYLCPALLYQIDSRLCIEHFDKLLVEDINKDKNLVPEDEANIGASAWICGIISITVISLLSLLGVILVPIINQGCFKFLLTFLVALAVGTMSGDALLHLLPHSQGGHDHSHQHAHGHGHSHGHESNKFLEEYDAVLKGLVALGGIYLLFIIEHCIRMFKHYKQQRGKQKWFMKQNTEESTIGRKLSDHKLNNTPDSDWLQLKPLAGTDDSVVSEDRLNETELTDLEGQQESPPKNYLCIEEEKIIDHSHSDGLHTIHEHDLHAAAHNHHGENKTVLRKHNHQWHHKHSHHSHGPCHSGSDLKETGIANIAWMVIMGDGIHNFSDGLAIGAAFSAGLTGGISTSIAVFCHELPHELGDFAVLLKAGMTVKQAIVYNLLSAMMAYIGMLIGTAVGQYANNITLWIFAVTAGMFLYVALVDMLPEMLHGDGDNEEHGFCPVGQFILQNLGLLFGFAIMLVIALYEDKIVFDIQF | 0 | 0.7375 | 0 | 0 | 1 | 0
4 | M-Q9ULX6 (protein, UniProt Q9ULX6 1-646, looked up) A-kinase anchor protein 8-like: MSYTGFVQGSETTLQSTYSDTSAQPTCDYGYGTWNSGTNRGYEGYGYGYGYGQDNTTNYGYGMATSHSWEMPSSDTNANTSASGSASADSVLSRINQRLDMVPHLETDMMQGGVYGSGGERYDSYESCDSRAVLSERDLYRSGYDYSELDPEMEMAYEGQYDAYRDQFRMRGNDTFGPRAQGWARDARSGRPMASGYGRMWEDPMGARGQCMSGASRLPSLFSQNIIPEYGMFQGMRGGGAFPGGSRFGFGFGNGMKQMRRTWKTWTTADFRTKKKKRKQGGSPDEPDSKATRTDCSDNSDSDNDEGTEGEATEGLEGTEAVEKGSRVDGEDEEGKEDGREEGKEDPEKGALTTQDENGQTKRKLQAGKKSQDKQKKRQRDRMVERIQFVCSLCKYRTFYEDEMASHLDSKFHKEHFKYVGTKLPKQTADFLQEYVTNKTKKTEELRKTVEDLDGLIQQIYRDQDLTQEIAMEHFVKKVEAAHCAACDLFIPMQFGIIQKHLKTMDHNRNRRLMMEQSKKSSLMVARSILNNKLISKKLERYLKGENPFTDSPEEEKEQEEAEGGALDEGAQGEAAGISEGAEGVPAQPPVPPEPAPGAVSPPPPPPPEEEEEGAVPLLGGALQRQIRGIPGLDVEDDEEGGGGAP | 0 | 0.34 | 0.752 | 0 | 0.98 | 1
5 | E-Q6DD88 (protein, UniProt Q6DD88 1-541, looked up, interactor of SARS-CoV-2 E) Atlastin-3: MLSPQRVAAAASRGADDAMESSKPGPVQVVLVQKDQHSFELDEKALASILLQDHIRDLDVVVVSVAGAFRKGKSFILDFMLRYLYSQKESGHSNWLGDPEEPLTGFSWRGGSDPETTGIQIWSEVFTVEKPGGKKVAVVLMDTQGAFDSQSTVKDCATIFALSTMTSSVQIYNLSQNIQEDDLQQLQLFTEYGRLAMDEIFQKPFQTLMFLVRDWSFPYEYSYGLQGGMAFLDKRLQVKEHQHEEIQNVRNHIHSCFSDVTCFLLPHPGLQVATSPDFDGKLKDIAGEFKEQLQALIPYVLNPSKLMEKEINGSKVTCRGLLEYFKAYIKIYQGEDLPHPKSMLQATAEANNLAAAASAKDIYYNNMEEVCGGEKPYLSPDILEEKHCEFKQLALDHFKKTKKMGGKDFSFRYQQELEEEIKELYENFCKHNGSKNVFSTFRTPAVLFTGIVALYIASGLTGFIGLEVVAQLFNCMVGLLLIALLTWGYIRYSGQYRELGGAIDFGAAYVLEQASSHIGNSTQATVRDAVVGRPSMDKKAQ | 0.9832 | 0 | 0 | 1 | 0 | 0
